According to article PMC6399494:

Key:
[1] = cell-surface biotinylation and confocal microscopy, HEK293; details: glycan gained; control: wild type full-length LDLR
[2] = immunoblot, Hepa1c1c7 lysate, normalised to actin; details: glycan gained; control: wild type full-length LDLR
[3] = immunoblot of mature LDLR form, HEK293; details: glycan lost; control: DMSO-treated cells

| Substance | localisation_or_trafficking [1] | expression_or_secretion [2] | localisation_or_trafficking [3] |
| --- | --- | --- | --- |
| LDL receptor (LDLR): D203N | no change | no change | – |
| LDL receptor (LDLR): tunicamycin, WT LDLR | – | – | no change |
